Experimental data reported in publication PMC6007550 (Nucleic Acids Research, 2018).
Substitutions are numbered along the chain they refer to. In names and notes the source's numbering stands.

B1: Sin R54E/I113V catalytic domain (residues 1-128) (domain or fragment, UniProt P20384 1-128, looked up)
chain: MIIGYARVSSLDQNLERQLENLKTFGAEKIFTEKQSGKSIENRPILQKALNFVEMGDRFIVESIDRLGRNYNEVIHTVNYLKDKEVQLMITSLPMMNEVIGNPLLDKFMKDLVIQILAMVSEQERNES
modifications: selenomethionine in place of methionine
B2: Sin R54E/I100T catalytic domain (residues 1-128) (domain or fragment, UniProt P20384 1-128, looked up)
chain: B1 chain with I100T, V113I
modifications: selenomethionine in place of methionine
B3: Sin R54E/I100T/Q115R catalytic domain (residues 1-128) (domain or fragment, UniProt P20384 1-128, looked up)
chain: B1 chain with I100T, V113I, Q115R
modifications: selenomethionine in place of methionine
B4: Sin R54E/T77I/I100T/Q115R catalytic domain (residues 1-128) (domain or fragment, UniProt P20384 1-128, looked up)
chain: B1 chain with T77I, I100T, V113I, Q115R
modifications: selenomethionine in place of methionine

Biological target: the molecule itself
Experiment: crystal structure

Row | Protein | stoichiometry N
1 | B1 | 4
2 | B2 | 4
3 | B3 | 4
4 | B4 | 4
